Source: patent US20210032334A1 (Dana-Farber, published 2021)

Biological target: T1, full-length murine BTNL2 expressed on 300.19 cells (mouse)
T1 construct: No signal peptide limits are stated; also called mBTNL2; mouse BTNL2
T1 chain: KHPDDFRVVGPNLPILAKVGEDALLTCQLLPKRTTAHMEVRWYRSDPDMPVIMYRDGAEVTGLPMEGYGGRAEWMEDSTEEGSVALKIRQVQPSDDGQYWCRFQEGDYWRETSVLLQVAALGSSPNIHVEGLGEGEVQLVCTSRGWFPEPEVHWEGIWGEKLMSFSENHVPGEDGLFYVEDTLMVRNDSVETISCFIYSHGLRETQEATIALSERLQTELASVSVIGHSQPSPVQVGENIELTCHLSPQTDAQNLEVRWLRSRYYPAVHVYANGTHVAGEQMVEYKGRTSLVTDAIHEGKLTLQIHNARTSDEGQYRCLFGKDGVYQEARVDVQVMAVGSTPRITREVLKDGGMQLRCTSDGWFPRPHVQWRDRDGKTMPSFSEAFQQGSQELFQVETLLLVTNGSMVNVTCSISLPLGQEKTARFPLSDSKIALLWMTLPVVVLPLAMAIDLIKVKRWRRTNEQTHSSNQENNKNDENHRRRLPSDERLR
Assay: flow cytometry, cell binding on 300.19 cells expressing full-length mBTNL2
Description: All rat anti-mouse BTNL2 mAbs were tested for reactivity with specific Ig domains of BTNL2 by flow cytometry on 300.19 cells transfected with full length murine BTNL2 cDNA, murine BTLN2 (first IgV domain)-murine PD-L1 (IgC, transmembrane and cytoplasmic domains, or BTNL2 (first IgV domain and 2nd Ig domain and short exon 4)-human TIM-1 mucin-transmembrane-cytoplasmic domains and for lack of reactivity with untransfected 300.19 cells. In particular, mouse pre-B cell line 300.19 cells were transfected by electroporation with full length murine BTNL2 cDNA, murine BTLN2 (first IgV domain)-murine PD-L1 (IgC, transmembrane and cytoplasmic domains, or BTNL2 (first IgV domain and 2nd Ig domain and short exon 4)-human TIM-1 mucin-transmembrane-cytoplasmic domains in the pEFGF-Puro expression vector. Cells were selected in media containing puromycin, sorted, and subcloned. […] Cells were stained with target antibodies and isotype controls using standard flow cytometry procedures, and analyzed on a FACSCanto (BD Biosciences) and FlowJo 9.2 software (TreeStar). […]
A number of anti-BTNL2 monoclonal antibodies were generated and analyzed (see FIGS. 3C-3D and Table 3 below for details), including extensive analysis of two exemplary anti-BTNL2 monoclonal antibodies that were prepared in rat against mouse BTNL2 (mBTNL2). […]

EC50: 0.054 µg/mL
B1: anti-mouse BTNL2 monoclonal antibody clone 311.8A7 (antibody, rat IgG1, V domains shown)
VH: EVRLVESGGGLVQPGRSLKLSCAASGFTFRIFYMAWVRQSPTKGLEWVAYISAGSDFTYYRDSVKGRFTISRDDAKSTLYLEMDSLRSEDTATYHCTTGYRYNFAYWGQGTLVTVSS
VL: DIQLTQSPSSLPASLGERVTISCRSSQDINSHLNWYQQKPDGTIKALIYQTSNLQSGVPSRFSGSGSGADYSLTISSLEPEDFAIFHCQQDADFPYTFGAGTKLELK
notes: Rat IgG1 (kappa) from a hybridoma, 311 series
